Test results taken from paper PMC10104517.

Experiments:
[1] = target: T1, pI73R (African swine fever virus (ASFV-GZ, …, UniProt A0A2X0RU36 1-72)); assay: BLI
[2] = target: T1, pI73R; assay: EMSA

GCUUUGAUUUCGUGCAUCUAUGGAG (ssRNA) [ssRNA] was tested, and the Kd [1] was 37.5 nM.

B1: dsRNA (dsRNA)
RNA 1: GCUUUGAUUUCGUGCAUCUAUGGAG
RNA 2: CUCCAUAGAUGCACGAAAUCAAAGC
In the case of B1, the Kd [1] is reported as 70 nM.

Work on TTGACGAGGAAGTGTCTGTT (ssDNA) [ssDNA] yielded a Kd [1] of 113 nM.

B2: dsDNA (dsDNA)
DNA 1: TTGACGAGGAAGTGTCTGTT
DNA 2: AACAGACACTTCCTCGTCAA
With B2 the Kd [1] was 100 nM.

GCUUUGCAGCCGCGGCUCGGUUUAG (ssRNA) [High-GC ssRNA]: binds [2].
